These results are taken from patent US20230051304A1 (Regeneron, published 2023).

B1: Fc-IL12(mutein 12) (Fc fusion)
chain: ESKYGPPCPPCPAPPVAGPSVFLFPPKPKDTLMISRTPEVTCVVVDVSQEDPEVQFNWYVDGVEVHNAKTKPREEQFNSTYRVVSVLTVLHQDWLNGKEYKCKVSNKGLPSSIEKTISKAKGQPREPQVYTLPPSQEEMTKNQVSLTCLVKGFYPSDIAVEWESNGQPENNYKTTPPVLDSDGSFFLYSRLTVDKSRWQEGNVFSCSVMHEALHNHYTQKSLSLSLGKGGGGSGGGGSGGGGSNGIWSTEILKNFKNKTFLKCEAPNYSGRFTCSWLVQRNMDLKFNIKSSSSSPDSRAVTCGMASLSAEKVTLDQRDYEKYSVSCQEDVTCPTAEETLPIELALEARQQNKYENYSTSFFIRDIIKPDPPKNLQMKPLKNSQVEVSWEYPDSWSTPHSYFSLKFFVRIQRKKEKMKETEEGCNQKGAFLVEKTSTEVQCKGGNVCVQAQDRYYNSSCSKWACVPCRVRSGGGGSGGGGSGGGGSRVIPVSGPARCLSQSRNLLKTTDDMVKTAREKLKHYSCTAEDIDHEDITRDQTSTLKTCLPLELHKNESCLATRETSSTTRGSCLPPQKTSLMMTLCLGSIYEDLKMYQTEFQAINAALQNHNHQQIILDKGMLVAIDELMQSLNHNGETLRQKPPVGEADPYRVKMKLCILLHAFSTRVVTINRVMGYLSSA
B2: Fc-IL12(mutein 1) (Fc fusion)
chain: ESKYGPPCPPCPAPPVAGPSVFLFPPKPKDTLMISRTPEVTCVVVDVSQEDPEVQFNWYVDGVEVHNAKTKPREEQFNSTYRVVSVLTVLHQDWLNGKEYKCKVSNKGLPSSIEKTISKAKGQPREPQVYTLPPSQEEMTKNQVSLTCLVKGFYPSDIAVEWESNGQPENNYKTTPPVLDSDGSFFLYSRLTVDKSRWQEGNVFSCSVMHEALHNHYTQKSLSLSLGKGGGGSGGGGSGGGGSMWELEKDVYVVEVDWTPDAPGETVNLTCDTPEEDDITWTSDQRHGVIGSGKTLTITVKEFLDAGQYTCHKGGETLSHSHLLLHKKENGIWSTEILKNFKNKTFLKCEAPNYSGRFTCSWLVQRNMDLKFNIKSSSSSPDSRAVTCGMASLSAEKVTLDQRDYEKYSVSCQEDVTCPTAEETLPIELALEARQQNKYENYSTSFFIRDIIKPDPPKNLQMKPLKNSQVEVSWEYPDSWSTPHSYFSLKFFVRIQRKKEKMKETEEGCNQKGAFLVEKTSTEVQCKGGNVCVQAQDRYYNSSCSKWACVPCRVRSGGGGSGGGGSGGGGSRVIPVSGPARCLSQSRNLLKTTDDMVKTAREKLKHYSCTAEDIDHEDITRDQTSTLKTCLPLELHKNESCLATRETSSTTRGSCLPPQKTSLMMTLCLGSIYEDLKMYQTEFQAINAALQNHNHQQIILDKGMLVAIDELMQSLNHNGETLRQKPPVGEADPARVKMKLCILLHAFSTRVVTINRVMGYLSSA
B3: Fc-IL12(mutein 11) (Fc fusion)
chain: ESKYGPPCPPCPAPPVAGPSVFLFPPKPKDTLMISRTPEVTCVVVDVSQEDPEVQFNWYVDGVEVHNAKTKPREEQFNSTYRVVSVLTVLHQDWLNGKEYKCKVSNKGLPSSIEKTISKAKGQPREPQVYTLPPSQEEMTKNQVSLTCLVKGFYPSDIAVEWESNGQPENNYKTTPPVLDSDGSFFLYSRLTVDKSRWQEGNVFSCSVMHEALHNHYTQKSLSLSLGKGGGGSGGGGSGGGGSMWELEKDVYVVEVDWTPDAPGETVNLTCDTPEEDDITWTSDQRHGVIGSGKTLTITVKEFLDAGQYTCHKGGETLSHSHLLLHKKENGIWSTAILANFANATFLKCEAPNYSGRFTCSWLVQRNMDLKFNIKSSSSSPDSRAVTCGMASLSAEKVTLDQRDYEKYSVSCQEDVTCPTAEETLPIELALEARQQNKYENYSTSFFIRDIIKPDPPKNLQMKPLKNSQVEVSWEYPDSWSTPHSYFSLKFFVRIQRKKEKMKETEEGCNQKGAFLVEKTSTEVQCKGGNVCVQAQDRYYNSSCSKWACVPCRVRSGGGGSGGGGSGGGGSRVIPVSGPARCLSQSRNLLKTTDDMVKTAREKLKHYSCTAEDIDHEDITRDQTSTLKTCLPLELHKNESCLATRETSSTTRGSCLPPQKTSLMMTLCLGSIYEDLKMYQTEFQAINAALQNHNHQQIILDKGMLVAIDELMQSLNHNGETLRQKPPVGEADPYRVKMKLCILLHAFSTRVVTINRVMGYLSSA
B4: Fc-IL12(mutein 3) (Fc fusion)
chain: ESKYGPPCPPCPAPPVAGPSVFLFPPKPKDTLMISRTPEVTCVVVDVSQEDPEVQFNWYVDGVEVHNAKTKPREEQFNSTYRVVSVLTVLHQDWLNGKEYKCKVSNKGLPSSIEKTISKAKGQPREPQVYTLPPSQEEMTKNQVSLTCLVKGFYPSDIAVEWESNGQPENNYKTTPPVLDSDGSFFLYSRLTVDKSRWQEGNVFSCSVMHEALHNHYTQKSLSLSLGKGGGGSGGGGSGGGGSMWELEKDVYVVEVDWTPDAPGETVNLTCDTPEEDDITWTSDQRHGVIGSGKTLTITVKEFLDAGQYTCHKGGETLSHSHLLLHKKENGIWSTEILKNFKNKTFLKCEAPNYSGRFTCSWLVQRNMDLKFNIKSSSSSPDSRAVTCGMASLSAEKVTLDQRDYEKYSVSCQEDVTCPTAEETLPIELALEARQQNKYENYSTSFFIRDIIKPDPPKNLQMKPLKNSQVEVSWEYPDSWSTPHSYFSLKFFVRIQRKKEKMKETEEGCNQKGAFLVEKTSTEVQCKGGNVCVQAQDRYYNSSCSKWACVPCRVRSGGGGSGGGGSGGGGSRVIPVSGPARCLSQSRNLLKTTDDMVKTAREKLKHYSCTAEDIDHEDITRDQTSTLKTCLPLELHKNESCLATRETSSTTRGSCLPPQKTSLMMTLCLGSIYEDLKMYQTEFQAINAALQNHNHQQIILDKGMLVAIDELMQSLNHNGETLRQKPPVGEADPRRVKMKLCILLHAFSTRVVTINRVMGYLSSA
B5: Fc-IL12(mutein 8) (Fc fusion)
chain: ESKYGPPCPPCPAPPVAGPSVFLFPPKPKDTLMISRTPEVTCVVVDVSQEDPEVQFNWYVDGVEVHNAKTKPREEQFNSTYRVVSVLTVLHQDWLNGKEYKCKVSNKGLPSSIEKTISKAKGQPREPQVYTLPPSQEEMTKNQVSLTCLVKGFYPSDIAVEWESNGQPENNYKTTPPVLDSDGSFFLYSRLTVDKSRWQEGNVFSCSVMHEALHNHYTQKSLSLSLGKGGGGSGGGGSGGGGSMWELEKDVYVVEVDATPDAPGETVNLTCDTPEEDDITWTSDQRHGVIGSGKTLTITVKEFLDAGQYTCHKGGETLSHSHLLLHKKENGIWSTEILKNFKNKTFLKCEAPNYSGRFTCSWLVQRNMDLKFNIKSSSSSPDSRAVTCGMASLSAEKVTLDQRDYEKYSVSCQEDVTCPTAEETLPIELALEARQQNKYENYSTSFFIRDIIKPDPPKNLQMKPLKNSQVEVSWEYPDSWSTPHSYFSLKFFVRIQRKKEKMKETEEGCNQKGAFLVEKTSTEVQCKGGNVCVQAQDRYYNSSCSKWACVPCRVRSGGGGSGGGGSGGGGSRVIPVSGPARCLSQSRNLLKTTDDMVKTAREKLKHYSCTAEDIDHEDITRDQTSTLKTCLPLELHKNESCLATRETSSTTRGSCLPPQKTSLMMTLCLGSIYEDLKMYQTEFQAINAALQNHNHQQIILDKGMLVAIDELMQSLNHNGETLRQKPPVGEADPYRVKMKLCILLHAFSTRVVTINRVMGYLSSA
B6: Fc-IL12(mutein 2) (Fc fusion)
chain: ESKYGPPCPPCPAPPVAGPSVFLFPPKPKDTLMISRTPEVTCVVVDVSQEDPEVQFNWYVDGVEVHNAKTKPREEQFNSTYRVVSVLTVLHQDWLNGKEYKCKVSNKGLPSSIEKTISKAKGQPREPQVYTLPPSQEEMTKNQVSLTCLVKGFYPSDIAVEWESNGQPENNYKTTPPVLDSDGSFFLYSRLTVDKSRWQEGNVFSCSVMHEALHNHYTQKSLSLSLGKGGGGSGGGGSGGGGSMWELEKDVYVVEVDWTPDAPGETVNLTCDTPEEDDITWTSDQRHGVIGSGKTLTITVKEFLDAGQYTCHKGGETLSHSHLLLHKKENGIWSTEILKNFKNKTFLKCEAPNYSGRFTCSWLVQRNMDLKFNIKSSSSSPDSRAVTCGMASLSAEKVTLDQRDYEKYSVSCQEDVTCPTAEETLPIELALEARQQNKYENYSTSFFIRDIIKPDPPKNLQMKPLKNSQVEVSWEYPDSWSTPHSYFSLKFFVRIQRKKEKMKETEEGCNQKGAFLVEKTSTEVQCKGGNVCVQAQDRYYNSSCSKWACVPCRVRSGGGGSGGGGSGGGGSRVIPVSGPARCLSQSRNLLKTTDDMVKTAREKLKHYSCTAEDIDHEDITRDQTSTLKTCLPLELHKNESCLATRETSSTTRGSCLPPQKTSLMMTLCLGSIYEDLKMYQTEFQAINAALQNHNHQQIILDKGMLVAIDELMQSLNHNGETLRQKPPVGEADPVRVKMKLCILLHAFSTRVVTINRVMGYLSSA
B7: Fc-IL12(mutein 4) (Fc fusion)
chain: ESKYGPPCPPCPAPPVAGPSVFLFPPKPKDTLMISRTPEVTCVVVDVSQEDPEVQFNWYVDGVEVHNAKTKPREEQFNSTYRVVSVLTVLHQDWLNGKEYKCKVSNKGLPSSIEKTISKAKGQPREPQVYTLPPSQEEMTKNQVSLTCLVKGFYPSDIAVEWESNGQPENNYKTTPPVLDSDGSFFLYSRLTVDKSRWQEGNVFSCSVMHEALHNHYTQKSLSLSLGKGGGGSGGGGSGGGGSMWELEKDVYVVEVDWTPDAPGETVNLTCDTPEEDDITWTSDQRHGVIGSGKTLTITVKEFLDAGQYTCHKGGETLSHSHLLLHKKENGIWSTEILKNFKNKTFLKCEAPNYSGRFTCSWLVQRNMDLKFNIKSSSSSPDSRAVTCGMASLSAEKVTLDQRDYEKYSVSCQEDVTCPTAEETLPIELALEARQQNKYENYSTSFFIRDIIKPDPPKNLQMKPLKNSQVEVSWEYPDSWSTPHSYFSLKFFVRIQRKKEKMKETEEGCNQKGAFLVEKTSTEVQCKGGNVCVQAQDRYYNSSCSKWACVPCRVRSGGGGSGGGGSGGGGSRVIPVSGPARCLSQSRNLLKTTDDMVKTAREKLKHYSCTAEDIDHEDITRDQTSTLKTCLPLELHKNESCLATRETSSTTRGSCLPPQKTSLMMTLCLGSIYEDLKMYQTEFQAINAALQNHNHQQIILDKGMLVAIDELMQSLNHNGETLRQKPPVGEADPERVKMKLCILLHAFSTRVVTINRVMGYLSSA

In this experiment the target is murine IL12 receptor complex (IL12Rβ1 and IL12Rβ2) (mouse, UniProt Q60837 20-738; P97378 24-874). Briefly: cell-based or functional assay.
Chain of murine IL12 receptor complex (IL12Rβ1 and IL12Rβ2) (Q60837 20-738, chain 1 of 2): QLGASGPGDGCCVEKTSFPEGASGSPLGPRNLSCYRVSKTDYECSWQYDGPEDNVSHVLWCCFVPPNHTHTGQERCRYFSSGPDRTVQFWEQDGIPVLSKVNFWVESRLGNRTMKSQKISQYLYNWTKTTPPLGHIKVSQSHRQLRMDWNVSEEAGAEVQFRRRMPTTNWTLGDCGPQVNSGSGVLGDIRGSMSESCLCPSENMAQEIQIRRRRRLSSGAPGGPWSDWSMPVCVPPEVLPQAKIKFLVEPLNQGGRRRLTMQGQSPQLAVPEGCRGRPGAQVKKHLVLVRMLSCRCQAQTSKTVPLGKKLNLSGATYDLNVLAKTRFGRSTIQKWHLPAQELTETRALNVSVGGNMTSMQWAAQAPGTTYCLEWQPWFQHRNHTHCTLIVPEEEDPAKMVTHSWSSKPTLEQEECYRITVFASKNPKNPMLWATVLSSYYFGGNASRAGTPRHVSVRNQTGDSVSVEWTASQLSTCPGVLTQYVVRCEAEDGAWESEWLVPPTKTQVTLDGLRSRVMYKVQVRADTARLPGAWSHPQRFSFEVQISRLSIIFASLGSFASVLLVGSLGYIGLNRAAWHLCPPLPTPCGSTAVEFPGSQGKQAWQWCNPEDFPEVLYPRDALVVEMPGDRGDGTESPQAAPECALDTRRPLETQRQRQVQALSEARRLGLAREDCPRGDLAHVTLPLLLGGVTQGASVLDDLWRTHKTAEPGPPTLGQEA
Chain of murine IL12 receptor complex (IL12Rβ1 and IL12Rβ2) (P97378 24-874, chain 2 of 2): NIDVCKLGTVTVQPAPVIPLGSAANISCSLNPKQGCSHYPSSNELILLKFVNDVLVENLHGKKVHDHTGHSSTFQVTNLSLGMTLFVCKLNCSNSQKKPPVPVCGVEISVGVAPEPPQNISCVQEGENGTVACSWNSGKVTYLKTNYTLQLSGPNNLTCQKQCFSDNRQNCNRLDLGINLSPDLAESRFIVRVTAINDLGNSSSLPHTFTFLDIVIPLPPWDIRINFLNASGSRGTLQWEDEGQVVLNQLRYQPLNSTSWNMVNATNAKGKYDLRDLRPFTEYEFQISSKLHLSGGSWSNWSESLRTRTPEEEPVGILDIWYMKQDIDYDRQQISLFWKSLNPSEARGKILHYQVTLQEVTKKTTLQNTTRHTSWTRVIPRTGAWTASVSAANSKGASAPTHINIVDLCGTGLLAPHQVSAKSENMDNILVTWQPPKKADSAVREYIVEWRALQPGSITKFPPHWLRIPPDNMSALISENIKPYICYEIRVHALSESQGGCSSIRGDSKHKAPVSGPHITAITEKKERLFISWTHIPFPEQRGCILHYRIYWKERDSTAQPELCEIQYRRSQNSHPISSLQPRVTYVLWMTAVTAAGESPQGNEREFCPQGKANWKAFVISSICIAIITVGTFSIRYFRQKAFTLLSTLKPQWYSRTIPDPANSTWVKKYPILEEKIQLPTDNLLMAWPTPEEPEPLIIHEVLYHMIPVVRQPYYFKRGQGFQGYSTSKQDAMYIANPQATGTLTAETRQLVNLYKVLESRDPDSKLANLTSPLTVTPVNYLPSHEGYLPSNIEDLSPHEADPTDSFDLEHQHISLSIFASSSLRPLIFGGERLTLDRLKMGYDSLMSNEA
With B1, the “Fold induction at 20 nM; STAT3-Luc reporter, CTLL2/STAT3-Luc cells” value was determined as 1.04 fold and the “Max fold induction; STAT3-Luc reporter, CTLL2/STAT3-Luc cells” value (from here on “Max fold induction … CTLL2/STAT3-Luc cells”) came out at 1.1 fold.

In the case of B2, the “EC50 (M); STAT3-Luc reporter, CTLL2/STAT3-Luc cells” value (“EC50 (M) … CTLL2/STAT3-Luc cells” for short) came to 1.76e-10 M; the “Fold induction at 20 nM; STAT3-Luc reporter, CTLL2/STAT3-Luc cells” value came out at 4.52 fold; the “Max fold induction … CTLL2/STAT3-Luc cells” value worked out at 4.52 fold.

Turning to B3, the “EC50 (M) … CTLL2/STAT3-Luc cells” value was 1.33e-09 M; the “Fold induction at 20 nM; STAT3-Luc reporter, CTLL2/STAT3-Luc cells” value came out at 8.93 fold; the “Max fold induction … CTLL2/STAT3-Luc cells” value was found to be 10.2 fold.

For the molecule B4, the “Fold induction at 20 nM; STAT3-Luc reporter, CTLL2/STAT3-Luc cells” value came out at 1.06 fold and the “Max fold induction … CTLL2/STAT3-Luc cells” value stood at 1.11 fold.

With B5, the “EC50 (M) … CTLL2/STAT3-Luc cells” value stood at 8.05e-10 M; the “Fold induction at 20 nM; STAT3-Luc reporter, CTLL2/STAT3-Luc cells” value worked out at 10 fold; the “Max fold induction … CTLL2/STAT3-Luc cells” value came out at 10.1 fold.

On to B6, for which the “EC50 (M) … CTLL2/STAT3-Luc cells” value was 2.6e-10 M; the “Fold induction at 20 nM; STAT3-Luc reporter, CTLL2/STAT3-Luc cells” value worked out at 5.41 fold; the “Max fold induction … CTLL2/STAT3-Luc cells” value stood at 5.9 fold.

As to B7, the “Fold induction at 20 nM; STAT3-Luc reporter, CTLL2/STAT3-Luc cells” value turned out to be 1.12 fold and the “Max fold induction … CTLL2/STAT3-Luc cells” value turned out to be 1.16 fold.
